Stoichiometry N data for one substance are collected here from PMC2688079.

For this test, the target named is Aqy1 from Pichia pastoris (Pichia pastoris). Description: crystal structure; hanging drop vapour diffusion at 4°C, protein at 9 mg/ml in beta-octylglucopyranoside; Crystal1: 28% PEG400, 100 mM Na-citrate pH 3.5, 200 mM Li2SO4 (1.15 Å); Crystal2: 33% PEG400, 100 mM Tris pH 8.0, 100 mM NaCl, 100 mM CdCl2 (1.40 Å); both space group I4, identical structures.

For “Aqy1 from Pichia pastoris (natural protein)”, the stoichiometry N was 4.

One may read the stoichiometry N as a count of units in the complex or per binding partner.
